Measured values reported in patent publication US20050027104A1.

What was measured:
[1] = target: human IgD (probe or solid phase; preparation not specified at the place) (human) (UniProt P01880); assay: SDS-PAGE and Western blot with IgD after 60 C treatment, densitometry, 6 experiments; reference: monomeric MID962-1200
[2] = target: surface-expressed B cell receptor (BCR) IgD on human CD19+ peripheral blood lymphocytes (human) (UniProt P01880); assay: flow cytometry, MID-FITC on PBLs incubated with the pre-immune serum (no blocking)
[3] = target: surface-expressed B cell receptor (BCR) IgD on human CD19+ peripheral blood lymphocytes (human) (UniProt P01880); assay: flow cytometry, MID-FITC on PBLs preincubated with rabbit anti-human IgD immunoglobulin fraction (competitor)
[4] = target: One of the two myelomas (purified IgD(κ) or IgD(λ); which one is not stated); assay: dot blot, purified MID in dilutions on membrane, IgD myeloma protein as probe

UniProt P01880, sequence (P01880 whole entry): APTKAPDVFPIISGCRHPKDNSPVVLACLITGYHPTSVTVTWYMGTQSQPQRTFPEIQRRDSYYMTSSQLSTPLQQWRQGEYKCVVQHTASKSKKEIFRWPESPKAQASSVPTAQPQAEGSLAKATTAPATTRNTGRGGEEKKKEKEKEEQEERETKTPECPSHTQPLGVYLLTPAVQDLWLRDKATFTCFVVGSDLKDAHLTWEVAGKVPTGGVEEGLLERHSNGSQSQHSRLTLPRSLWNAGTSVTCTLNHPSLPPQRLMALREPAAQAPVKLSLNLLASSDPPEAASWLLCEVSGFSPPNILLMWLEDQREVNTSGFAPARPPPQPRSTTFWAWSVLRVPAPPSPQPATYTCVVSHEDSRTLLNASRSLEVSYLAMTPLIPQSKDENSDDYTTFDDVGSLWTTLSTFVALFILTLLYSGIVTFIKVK

Substance	fold more efficient binding to IgD than the monomeric form [1] [fold]	Mean fluorescence intensity (arbitrary units) [2]	Mean fluorescence intensity (arbitrary units) [3]	least amount of MID detected on the membrane [4] [µg]
MID962-1200 (F2), tetrameric form	23			
MID, IgD-binding surface exposed protein purified from Moraxella catarrhalis strain Bc5 (native full length MID1-2139)		79.2	14.6	0.001
